Our source for the AmyQ secretion efficiency values is the supplement of paper PMC9942255.

In this data set the test system is Bacillus subtilis DB104 (SP-AmyQ fusion secretion). The experiment in a line: AmyQ secretion efficiency, weighted average sort bin (1 = best secretion, 10 = worst) (bin number (weighted average, 1-10)); higher = lower secretion efficiency. In outline: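 Secretion score gives the read-frequency-weighted average bin number, normalised to beads per bin, with low-abundance sequences left out. A B. subtilis DB104 library expressing mature AmyQ fused to designed signal peptides, integrated at amyE, was encapsulated with fluorescein-starch at about 0.3 cells per ~65 nL alginate bead. Beads were grown about 13 h at room temperature, stained with nile red, and the occupied ones were sorted by large-particle flow cytometry into 10 equally populated bins by green/red fluorescence ratio before the amplicons from each bin were Illumina-sequenced.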

Sequence MAIIIAIIAAVIVIAALITFNVHNASPG registered an AmyQ secretion efficiency of 7.6.

In the case of MTMLRKKGRWSLLLCIIPLFAFTVIASGKEV, the AmyQ secretion efficiency was 6.17.

MRGKSAVLLSLIMLIAGFLIDFSFQM displayed an AmyQ secretion efficiency of 7.67.

MFNRLFRVCFLAALIMAFTLPNSVYKQKP had an AmyQ secretion efficiency of 6.24.

MMLSVKIAGVLTVAAAAMTAKMYATAKGN showed an AmyQ secretion efficiency of 5.4.

Sequence MRFTKVVGFLSVLGLAADEDLTAQAEKA returned an AmyQ secretion efficiency of 3.78.

With MRPVFPLILSAVLFLSCFTGARQTEASASKR, the AmyQ secretion efficiency worked out at 3.07.

Sequence MAIIIAIIAAVIVIAALITFNVRNQSPG gave an AmyQ secretion efficiency of 9.31.

For MTSSGGMFIVFICFFVLFSVHPIAAAAADS, the AmyQ secretion efficiency was found to be 6.41.

In turn, MLKKKWMLMVGLLAGCLAAGGFSYNAFATEN showed an AmyQ secretion efficiency of 4.46.

Sequence MRPVFPLILSAVLFLSCFFGARQTEHSASKR came in with an AmyQ secretion efficiency of 6.3.

The sequence MRKYTVIASILLSFLSVLKKKKHHKSKAFPV yielded an AmyQ secretion efficiency of 7.85.

MKKSQYFIVFICFFVLFSVHPIAAAFADS had an AmyQ secretion efficiency of 5.18.

For MKVCQKSIRFLVSLIIGTFVISVPFMANAQSD, the AmyQ secretion efficiency was determined as 1.22.

Sequence MTKKAWFLPLVCVLLISGWLAPAASASSQTT returned an AmyQ secretion efficiency of 1.17.

With MSMIGLLFMLCLAALFTIGFPAQQADAAEA, the AmyQ secretion efficiency came to 2.

As for MRMLWRMMISLALCGLALTLAPCAQAAEP, the AmyQ secretion efficiency was found to be 1.79.

As for MMIKQNMSSNSSCVICLSLLVFGTTAAHAEET, the AmyQ secretion efficiency stood at 4.39.

Consider MNTAIIIAIIAAVIVIAALITFNVRNASPG, for which the AmyQ secretion efficiency stood at 8.06.

Take MIAYFGKCLLLVTIMFLGVLFGMQQYNHG: the AmyQ secretion efficiency turned out to be 6.5.

In turn, MKLSVKIRRRKTVAAAAMTAKMYATAKGN showed an AmyQ secretion efficiency of 7.97.

As to MKKFIFNMFIGLLFMLCLAALFTIGFPAQQADAAEA, the AmyQ secretion efficiency is 2.9.

On to MPYLKRKYRLLVTGLFMSLFAVTATASAQTG, for which the AmyQ secretion efficiency stood at 1.78.

Take MRSYIKVLTMCFLGLILFVPTVLADNS: the AmyQ secretion efficiency turned out to be 2.19.

For MLSSKWMVGLLAGCLAAGGFSYNAFATEN, the AmyQ secretion efficiency was determined as 3.83.

The sequence MKLKSKLLLSCLALSTVFVATTIKNAPTH returned an AmyQ secretion efficiency of 6.58.

In turn, MKKTIMSFFFVAVAALSTTAFGAHASAKEI gave an AmyQ secretion efficiency of 2.53.

In turn, MKNMSCKLVVSVTLFFSFLTIGPLAHAQKR returned an AmyQ secretion efficiency of 1.94.

Consider MFFTIVAGLAVSAVVGSSMAAAPAEAKTI, for which the AmyQ secretion efficiency amounted to 2.75.

Sequence MKKAAAVLLSLGLVFGFSYGAGHVAEAATD gave an AmyQ secretion efficiency of 3.51.

With MLTKRLLTIYIMLLGLIAWFPGAAQAKRK, the AmyQ secretion efficiency was 6.07.

MRKTIFAFLTGLMMFKRRKKKASASPD had an AmyQ secretion efficiency of 7.76.

The sequence MKKGIRFLLVSFVLFFALSTGITGVQAAPA showed an AmyQ secretion efficiency of 2.35.

Turning to MKLSVKIAGVLTVAAAAMTAKMYRTAKGN, the AmyQ secretion efficiency was 7.39.

MKKWMITIAMLKKKRRRLFVFISPLKSHKT gave an AmyQ secretion efficiency of 7.47.

For MKVKRRKRKLLLFAFEPSASGKKL, the AmyQ secretion efficiency turned out to be 6.97.

Regarding MKVPKTMLLSTAAGLLLSLTATSKSAHYV, the AmyQ secretion efficiency stood at 6.37.

As for MTMLRKIIGWILLLCIIPEFAFTVIASGKEV, the AmyQ secretion efficiency was 5.32.

MKLSVKIAGVLTVAAAAMTAKMYTTAKGN: the AmyQ secretion efficiency worked out at 7.65.

Sequence MKKLLAAGIIGLLTVSIASPWFAAEK had an AmyQ secretion efficiency of 7.98.

MKKKQVMLKRKKKKGLGLTALHSAPAAKAAPL: the AmyQ secretion efficiency came out at 8.05.

MTKKAWFLPLVCVLLISGWLAPAASASDQTT showed an AmyQ secretion efficiency of 2.72.

As for MKKVMLATALFLGLTRRKANAADL, the AmyQ secretion efficiency stood at 7.36.

The sequence MAIIIAIIAAVIVIAALITFNVANASPG returned an AmyQ secretion efficiency of 5.63.

MAIIIAIIAAVIVIAALITFNVTNASPG showed an AmyQ secretion efficiency of 7.21.

For MLKKIALTLCPAIVGSLLFFTAPSSAHVS, the AmyQ secretion efficiency came to 3.86.

MKKLLAAGIIGLLTVSIASPQFAAEK displayed an AmyQ secretion efficiency of 6.75.

The sequence MKKRITYSLLALLAVVAFAFLTDSSKAKAAEA returned an AmyQ secretion efficiency of 3.06.

As for MFKKHTISLLIIFLLASAVLAKPIEGHTV, the AmyQ secretion efficiency was 3.78.

For MRIFKKAVFVIMISFLIATVNVNTAHAAEE, the AmyQ secretion efficiency was 1.56.

For MKVPKTMLLSTAAGLLLSLTATSASAHYV, the AmyQ secretion efficiency amounted to 5.6.

As for MKRIRIPMTLALGAALTIAPLDEEDDDASAEEN, the AmyQ secretion efficiency was 5.27.

As for MMIKQCVICLSLLVFGTIAIAHAEET, the AmyQ secretion efficiency worked out at 4.16.

MKWMCKKCCKKVLLAGGAAQAEAV registered an AmyQ secretion efficiency of 7.14.

The sequence MKKRITLLALLAVVAFAFTDSSKAKAAEA yielded an AmyQ secretion efficiency of 3.06.

With MKKRFSLIMMFILLFMLMSPAFAAEK, the AmyQ secretion efficiency stood at 3.79.

The sequence MFNRLFRVCFLAALIMAFTLPNSVYEQKP showed an AmyQ secretion efficiency of 7.29.

Consider MRKRTKTSLLLAGLCTAAQMVFVTHASAEES, for which the AmyQ secretion efficiency amounted to 3.51.

MKVCQKSIVRFLVSLIIGTFVISVPFMANAQDD gave an AmyQ secretion efficiency of 2.65.

The sequence MGKRGGSGSSLFISSAVLLSILLPSGQAHAQSA yielded an AmyQ secretion efficiency of 1.07.

As to MNKPTKLFSTLALAAGMTKDKTTSAGTIHAQQP, the AmyQ secretion efficiency was 7.85.

As to MLKKKWMVGLLAGCLAAGGFSYNAFATKK, the AmyQ secretion efficiency was found to be 4.27.

On to MKLKSKYYKGCRSTSTVFVATTIANAPTH, for which the AmyQ secretion efficiency amounted to 7.35.

As to MKKRITYSLLALLAVVATDSSKAKAAEA, the AmyQ secretion efficiency came out at 2.87.

In turn, MLMLLSTLLIGIMLLTFAPSAFAKQD had an AmyQ secretion efficiency of 4.38.

MKLKKRVSMFLVALTMCGGLFVTPAKAVPR came in with an AmyQ secretion efficiency of 1.68.

Turning to MNKLKRLSMLTVMIASVFIFSSHALAAQE, the AmyQ secretion efficiency was 1.11.

MRKTIFAFLTGLMMFGTITAMSASPD had an AmyQ secretion efficiency of 5.39.

As to MLKKIMNLNMMMALTLCPAIVGSLLFFTAPASAHVS, the AmyQ secretion efficiency worked out at 2.77.

MKKVLMAFIICLSLILSVLAAPPSGAKMESV returned an AmyQ secretion efficiency of 4.39.

With MKKVLMAFIICLSLILSVLAAPPSGSAVSAKAESV, the AmyQ secretion efficiency was found to be 2.05.

Turning to MRSYIKVLTMCFLGLILFVPTPLADNS, the AmyQ secretion efficiency worked out at 5.93.

In turn, MNKKYFVLIVCIIFTSALFPTFSSVTCAQG showed an AmyQ secretion efficiency of 1.06.

In turn, MIVIILLFISIIVFLKRKKKKIQPQPS showed an AmyQ secretion efficiency of 8.16.

The sequence MRSYIKVLTMCFLGLILFVPTCLADNS showed an AmyQ secretion efficiency of 2.04.

The sequence MLKKIALTLCPAIVGSLLFFTAPKSAHVS displayed an AmyQ secretion efficiency of 5.03.

Regarding MKVLLSALLLLLFAFAASASGKKL, the AmyQ secretion efficiency is 6.06.

MKRSSGKQLIGIMLLTFAPSAFAKQD: the AmyQ secretion efficiency came to 3.5.

MSLNKRVSMFLVALTMCGGLFVTPAKAVKT showed an AmyQ secretion efficiency of 2.92.

In turn, MKRCKRLIVCSLAAILLLIPSVSFAADS had an AmyQ secretion efficiency of 3.14.

Sequence MRKYTQIASILLSFLSVLSGGHHESKAFPV displayed an AmyQ secretion efficiency of 6.41.

As to MKRIRIPMTLALGAALTIAPLSFTGFGPAGASAEEN, the AmyQ secretion efficiency was found to be 3.89.

As to MKNMSCKLVVSVTLFFSFLTIGPLFHAQNS, the AmyQ secretion efficiency was found to be 5.19.

In the case of MKKKLKKGLTASAIVGTTLVVTPAEAATI, the AmyQ secretion efficiency stood at 5.93.

MKLSVKIAGVLTVAAAAMTAKMYWTAKGN gave an AmyQ secretion efficiency of 7.62.

MFNRLFRVCKKKRKRMAFTLPNSVYAQKP: the AmyQ secretion efficiency came to 7.15.

Sequence MFKKGYSSYRKRTFSLSLVLPLDGHAKAQEV came in with an AmyQ secretion efficiency of 7.96.

The sequence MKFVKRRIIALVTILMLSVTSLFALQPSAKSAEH displayed an AmyQ secretion efficiency of 2.64.

For MFKKLLLATSALTFSLSLVLPLDGHAKAQSV, the AmyQ secretion efficiency turned out to be 1.96.

Regarding MKNMSCKLVVSVTLFFSFLTIGPLAHRQNS, the AmyQ secretion efficiency is 6.88.

Sequence MLKKVKRRRFILVGSTLGAFSFSSDASAKHV yielded an AmyQ secretion efficiency of 7.34.

MSPVFPLILSAVLFLSCFFGARQTEASASKR returned an AmyQ secretion efficiency of 2.21.

Sequence MAIIIAIIAAVIVIAALITFEVRNASPG had an AmyQ secretion efficiency of 5.68.

Consider MAIIIAIIAAVIVIAALITFNVPNASPG, for which the AmyQ secretion efficiency is 6.07.

With MTKKAWFLPLVCVLLISGWLAPAASASMQTT, the AmyQ secretion efficiency was 2.07.

Regarding MKKLVLCVSILAVILSGVYLTQLS, the AmyQ secretion efficiency is 5.92.

In the case of MKKAFLVFLSVVLVTTVFLVKQQESVAQHKQL, the AmyQ secretion efficiency came out at 4.12.

MKKRYMAFIICLSLILSVLAAPPSGAKAESV had an AmyQ secretion efficiency of 2.

Sequence MKNMSCKTSGSTTGGTSFLTIGPLAHAQNS showed an AmyQ secretion efficiency of 6.59.

The sequence MRKKLKWLSFLLGFIILLFLFFFIALIVLAKYQFSNNDS had an AmyQ secretion efficiency of 6.41.

For the sequence MNIKKFAKQATVLTFTTALLAGGATQAFAKKR, the AmyQ secretion efficiency was found to be 3.43.

Consider MKKRKRRNFKRFIAAFLVLALMISLVPDVLAKST, for which the AmyQ secretion efficiency is 3.69.

For the sequence MKRLLSTLLIGIMLLFFIFFTFAPSAFAKQD, the AmyQ secretion efficiency turned out to be 1.97.

In the case of MLKKIALILCIAIVFFLLFFSAPASAHVS, the AmyQ secretion efficiency stood at 3.76.

As to MFKKHTISLLIIFLLASAVLAKPIEYHTV, the AmyQ secretion efficiency was determined as 5.13.

As to MNLRKILLSSALSLGMLKRKAPVLATSS, the AmyQ secretion efficiency turned out to be 7.26.

Sequence MKKKIVAGLAVSAVVGSSMAAEAKTI gave an AmyQ secretion efficiency of 5.65.

On to MFKKHTISLLIIFLLASAVLAKPCEAHTV, for which the AmyQ secretion efficiency worked out at 2.62.

For MKLWMRKTLVVLFTIVTFGLVSPPAALMAATP, the AmyQ secretion efficiency was 2.71.
